The source of these data is US20250064952A1 (ACCELERON PHARMA, published 2025).

First the molecules themselves.
T1: activin A (UniProt P08476 311-426)
T1 sequence (looked up): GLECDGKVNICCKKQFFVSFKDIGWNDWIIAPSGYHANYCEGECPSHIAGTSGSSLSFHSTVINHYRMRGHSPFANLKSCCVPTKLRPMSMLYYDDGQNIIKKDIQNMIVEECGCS

T2: BMP9 (UniProt Q9UK05 320-429)
T2 construct: also called GDF2
T2 sequence (looked up): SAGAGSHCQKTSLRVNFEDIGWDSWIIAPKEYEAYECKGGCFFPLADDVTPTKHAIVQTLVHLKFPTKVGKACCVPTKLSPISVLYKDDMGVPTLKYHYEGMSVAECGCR

T3: BMP10 (UniProt O95393 317-424)
T3 sequence (looked up): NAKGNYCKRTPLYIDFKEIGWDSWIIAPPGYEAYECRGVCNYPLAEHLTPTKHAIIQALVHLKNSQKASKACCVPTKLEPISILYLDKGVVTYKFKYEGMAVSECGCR

T4: GDF3 (UniProt Q9NR23 251-364)
T4 construct: also called VGR2
T4 sequence (looked up): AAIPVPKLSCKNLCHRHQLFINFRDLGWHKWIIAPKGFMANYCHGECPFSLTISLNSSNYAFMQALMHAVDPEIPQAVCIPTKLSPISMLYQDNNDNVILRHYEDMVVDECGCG

T5: GDF8 (UniProt O14793 267-375)
T5 construct: also called myostatin
T5 sequence (looked up): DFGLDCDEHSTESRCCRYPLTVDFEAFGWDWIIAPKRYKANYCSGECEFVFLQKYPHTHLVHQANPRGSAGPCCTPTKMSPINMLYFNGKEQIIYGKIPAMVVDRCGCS

T6: GDF11 (UniProt O95390 299-407)
T6 construct: also called BMP11
T6 sequence (looked up): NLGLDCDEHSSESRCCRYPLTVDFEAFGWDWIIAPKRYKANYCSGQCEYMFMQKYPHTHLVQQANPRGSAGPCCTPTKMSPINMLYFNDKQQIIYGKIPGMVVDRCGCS

T7: BMP6 (UniProt P22004 382-513, limits assumed)
T7 sequence (looked up): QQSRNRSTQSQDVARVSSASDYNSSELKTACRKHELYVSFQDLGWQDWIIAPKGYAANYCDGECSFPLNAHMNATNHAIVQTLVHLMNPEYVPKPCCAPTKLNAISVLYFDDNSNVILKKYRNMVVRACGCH

T8: activin AC (UniProt P08476 311-426; P55103 237-352)
T8 construct: Heterodimer of beta A and beta C
T8 sequence (looked up) 1: T1 sequence (looked up)
T8 sequence (looked up) 2: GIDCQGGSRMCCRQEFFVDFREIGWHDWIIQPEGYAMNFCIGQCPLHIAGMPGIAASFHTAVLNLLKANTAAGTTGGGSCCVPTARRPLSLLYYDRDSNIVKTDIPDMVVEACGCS

T9: BMP5 (UniProt P22003 317-454, limits assumed)
T9 sequence (looked up): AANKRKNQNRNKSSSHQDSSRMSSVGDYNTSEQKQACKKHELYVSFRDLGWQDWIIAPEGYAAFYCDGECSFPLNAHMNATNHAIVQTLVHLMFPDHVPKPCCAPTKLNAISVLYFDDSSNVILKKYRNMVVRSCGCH

B1: activin B (ligand, UniProt P09529 293-407, looked up)
chain: GLECDGRTNLCCRQQFFIDFRLIGWNDWIIAPTGYYGNYCEGSCPAYLAGVPGSASSFHTAVVNQYRMRGLNPGTVNSCCIPTKLSTMSMLYFDDEYNIVKRDVPNMIVEECGCA
B2: ActRIIB-Fc:ActRIIB(L79E)-Fc heterodimer (Fc fusion)
chain 1: GRGEAETRECIYYNANWELERTNQSGLERCEGEQDKRLHCYASWRNSSGTIELVKKGCWLDDFNCYDRQECVATEENPQVYFCCCEGNFCNERFTHLPEAGGPEVTYEPPPTAPTGGGTHTCPPCPAPELLGGPSVFLFPPKPKDTLMISRTPEVTCVVVDVSHEDPEVKFNWYVDGVEVHNAKTKPREEQYNSTYRVVSVLTVLHQDWLNGKEYKCKVSNKALPAPIEKTISKAKGQPREPQVYTLPPSRKEMTKNQVSLTCLVKGFYPSDIAVEWESNGQPENNYKTTPPVLKSDGSFFLYSKLTVDKSRWQQGNVFSCSVMHEALHNHYTQKSLSLSPGK
chain 2: GRGEAETRECIYYNANWELERTNQSGLERCEGEQDKRLHCYASWRNSSGTIELVKKGCWEDDFNCYDRQECVATEENPQVYFCCCEGNFCNERFTHLPEAGGPEVTYEPPPTAPTGGGTHTCPPCPAPELLGGPSVFLFPPKPKDTLMISRTPEVTCVVVDVSHEDPEVKFNWYVDGVEVHNAKTKPREEQYNSTYRVVSVLTVLHQDWLNGKEYKCKVSNKALPAPIEKTISKAKGQPREPQVYTLPPSREEMTKNQVSLTCLVKGFYPSDIAVEWESNGQPENNYDTTPPVLDSDGSFFLYSDLTVDKSRWQQGNVFSCSVMHEALHNHYTQKSLSLSPG
notes: also called ActRIIB-Fc:ActRIIB(L79E)-Fc heteromer
B3: ActRIIB-Fc homodimer (Fc fusion, human, UniProt Q13705 19-137, looked up, not shown: a dimerising Fc or GST)
chain: SGRGEAETRECIYYNANWELERTNQSGLERCEGEQDKRLHCYASWRNSSGTIELVKKGCWLDDFNCYDRQECVATEENPQVYFCCCEGNFCNERFTHLPEAGGPEVTYEPPPTAPTLLT
notes: extracellular domain; also called unmodified ActRIIB-Fc homodimer; ActRIIB-Fc:ActRIIB-Fc homodimer

In one assay the target is T10, ActRIIA-mFc (human, UniProt P27037 20-135).
T10 construct: extracellular domain; not shown: minimal linker, not specified for the mouse construct
Description: similar Biacore binding assay. The method, then: GDF11 or activin A were immobilized on a Biacore™ CMS chip using standard amine-coupling procedure. ActRIIA-hFc and ActRIIA-mFc proteins were loaded onto the system, and binding was measured. […] See FIG. 15A-B. Using a similar binding assay, ActRIIA-hFc was determined to have high to moderate affinity for other TGF-beta superfamily ligands including, for example, activin B, GDF8, BMP6, and BMP10. ActRIIA-mFc behaved similarly.
(Surface plasmon resonance follows binding to a sensor surface in real time, without labels.)

Assay [1] concerns the target B3. Description: SPR (Biacore), anti-Fc capture, ligand in flow. The method, then: (§1) A Biacore™-based binding assay was used to compare ligand binding selectivity of the ActRIIB-Fc:ALK4-Fc heterodimeric complex described above with that of ActRIIB-Fc and ALK4-Fc homodimer complexes. The ActRIIB-Fc:ALK4-Fc heterodimer, ActRIIB-Fc homodimer, and ALK4-Fc homodimer were independently captured onto the system using an anti-Fc antibody. Ligands were injected and allowed to flow over the captured receptor protein. Results are summarized in the table below, in which ligand off-rates (kd) most indicative of effective ligand traps are denoted by bold font.

Assay [2] has as its target B3. The assay can be described thus: SPR (Biacore), anti-Fc capture, ligand in flow. On the procedure: (§2) A Biacore™-based binding assay was used to compare ligand binding selectivity of the ActRIIB-Fc:ALK7-Fc heterodimeric complex described above with that of ActRIIB-Fc and ALK7-Fc homodimeric complexes. The ActRIIB-Fc:ALK7-Fc heterodimer, ActRIIB-Fc homodimer, and ALK7-Fc homodimer were independently captured onto the system using an anti-Fc antibody. Ligands were injected and allowed to flow over the captured receptor protein. Results are summarized in the table below, in which ligand off-rates (kd) most indicative of effective ligand traps are denoted by bold font.
The source holds these as a separate data set.

The target of assay [3] is B3. Description: SPR (Biacore), 37 C, anti-Fc capture, ligand in flow. On the procedure:
(§3) A Biacore™-based binding assay was used to compare the ligand binding kinetics of an ActRIIB-Fc:ActRIIB(L79E)-Fc heterodimer with those of unmodified ActRIIB-Fc homodimer. Fusion proteins were captured onto the system using an anti-Fc antibody. Ligands were then injected and allowed to flow over the captured receptor protein at 37° C. Results are summarized in the table below, in which ligand off-rates (kd) most indicative of effective ligand traps are denoted in bold.

A further assay addresses T1, activin A. The assay is described as above. On the procedure:
as §3

Another assay deals with T2, BMP9. The description is as above. The method, then: as §3
In the next assay the target is T3, BMP10. Described as above. On the procedure:
as §3

For the assay “activin B”, the target named is B1. The description is as above. The method, then:
as §3

The target in the next assay is T4, GDF3. The description is as above. On the procedure:
as §3

The target of a further assay is T5, GDF8. Described as above. On the procedure:
as §3

For a further assay, the target named is T6, GDF11. The description is as above. On the procedure: as §3
For assay [4], the target named is T7, BMP6. Described as above. The method, then:
as §3

Assay [5] has as its target T7, BMP6. The assay can be described thus: SPR (Biacore), anti-Fc capture, ligand in flow. On the procedure: as §1
The next assay deals with T8, activin AC. Description: SPR (Biacore), anti-Fc capture, ligand in flow. On the procedure:
as §2

A further assay addresses T9, BMP5. The assay can be described thus: SPR (Biacore), anti-Fc capture, ligand in flow. The method, then:
as §2

Assay [6] concerns the target T7, BMP6. The assay can be described thus: SPR (Biacore), anti-Fc capture, ligand in flow. The method, then:
as §2
This is another data set of the same source.

T10 sequence (P27037 20-135): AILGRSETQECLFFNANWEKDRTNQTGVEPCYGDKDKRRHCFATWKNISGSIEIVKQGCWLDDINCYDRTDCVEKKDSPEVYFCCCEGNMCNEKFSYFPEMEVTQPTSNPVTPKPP

Consider B1, for which the binding result with ActRIIA-mFc is given as “binds”. In the assay with ActRIIB-Fc homodimer [1], binding was characterised by a dissociation constant (Kd) of 0.02 nM, the koff (commonly the rate constant with which the complex falls apart) came to 0.0001 s⁻¹ and the association rate constant (kon) (commonly the rate constant with which the complex forms) is 5.1e+06 M⁻¹ s⁻¹. For the same molecule, in the assay with ActRIIB-Fc homodimer [2], binding was put at a Kd of 8 pM, the koff is 0.00016 s⁻¹ and the kon stood at 1.5e+07 M⁻¹ s⁻¹. Further, in the assay with ActRIIB-Fc homodimer [3], the affinity, expressed as Kd, was 8 pM; the koff came to 6.6e-05 s⁻¹; the kon is 8.1e+06 M⁻¹ s⁻¹.

On to B2, for which the Kd (in general, the constant that tells how readily two partners part at equilibrium) in the assay with activin A is 0.17 nM; with BMP9 it was greater than 2.8 nM; with BMP10, 0.042 nM; with activin B, 0.025 nM; with GDF3 it was 10 nM; with GDF8, 0.15 nM. The dissociation constant (Kd) with GDF11 was 9 pM; in the assay with BMP6 [4] it was 0.056 nM. The “fold faster off-rate vs ActRIIB-Fc homodimer” value with activin A and with BMP10 was roughly 10 fold in each case. Further, the koff turned out to be 0.0015 s⁻¹ with activin A; 0.002 s⁻¹ in the assay with BMP10; 0.00021 s⁻¹ with activin B; 0.0059 s⁻¹ with GDF3; 0.0005 s⁻¹ with GDF8; 0.00036 s⁻¹ with GDF11. In the assay with BMP6 [4], this molecule returned a koff of 0.018 s⁻¹. The kon in the assay with activin A is 8.8e+06 M⁻¹ s⁻¹; in the assay with BMP10, 4.8e+07 M⁻¹ s⁻¹; with activin B it was 8.3e+06 M⁻¹ s⁻¹; in the assay with GDF3 it was 580000 M⁻¹ s⁻¹; with GDF8, 3.4e+06 M⁻¹ s⁻¹; with GDF11, 4e+07 M⁻¹ s⁻¹. In the assay with BMP6 [4], this molecule gave a kon of 3.3e+08 M⁻¹ s⁻¹.

Turning to B3, the Kd with BMP6 [5] turned out to be 0.19 nM; with activin AC it was 0.16 nM; in the assay with BMP5 it was 2.9 nM; with BMP6 [6], 0.16 nM; with BMP6 [4], 0.056 nM. The koff in the assay with BMP6 [5] is 0.0068 s⁻¹; with activin AC it was 0.0031 s⁻¹; in the assay with BMP5, 0.075 s⁻¹; in the assay with BMP6 [6] it was 0.0039 s⁻¹; in the assay with BMP6 [4], 0.0074 s⁻¹. For the same molecule, the kon amounted to 3.2e+07 M⁻¹ s⁻¹ with BMP6 [5]; 2e+07 M⁻¹ s⁻¹ with activin AC; 2.6e+07 M⁻¹ s⁻¹ with BMP5; 2.4e+07 M⁻¹ s⁻¹ with BMP6 [6]; 1.3e+08 M⁻¹ s⁻¹ with BMP6 [4].
